This note sets out measurements from patent publication US20050048527.

Data set [1] concerns the target CLEAVASE A/G nuclease (Thermus aquaticus) (UniProt P19821). The experiment in a line: cleavage_in_vitro. The note with it: probe cleaved in 30 min.
For data set [2], the target named is DNAPTth (Thermus thermophilus) (UniProt P52028). The experiment in a line: cleavage_in_vitro. The note with it: probe cleaved in 30 min.
The target of data set [3] is MAM FEN1 (arch swap chimera) (Methanococcus jannaschii / Archaeoglobus fulgidus?) (UniProt Q58839). In words: cleavage_in_vitro. Particulars: rate vs Pfu FEN1.
In data set [4] the target is MPM FEN1 (arch swap chimera) (Methanococcus jannaschii / Pyrococcus furiosus?) (UniProt Q58839). The experiment in a line: cleavage_in_vitro. Particulars: rate vs Pfu FEN1.
Data set [5] has as its target Mja + P16 FEN1 (loop swap chimera) (Methanococcus jannaschii / Pyrococcus furiosus?) (UniProt Q58839). The experiment in a line: cleavage_in_vitro. The note with it: rate vs Pfu FEN1.
Data set [6] concerns the target PAP FEN1 (arch swap chimera) (Pyrococcus furiosus / Archaeoglobus fulgidus?) (UniProt O93634). The experiment in a line: cleavage_in_vitro. Particulars: rate vs Pfu FEN1.
Data set [7] deals with PMP FEN1 (arch swap chimera) (UniProt O93634). The experiment in a line: cleavage_in_vitro. The note with it: rate vs Pfu FEN1.
Data set [8] addresses Pfu + M4 FEN1 (loop swap chimera) (UniProt O93634). In words: cleavage_in_vitro. Particulars: rate vs Pfu FEN1.
Data set [9] has as its target T1, Mja FEN1 (Methanococcus jannaschii) (UniProt Q58839).
T1 sequence: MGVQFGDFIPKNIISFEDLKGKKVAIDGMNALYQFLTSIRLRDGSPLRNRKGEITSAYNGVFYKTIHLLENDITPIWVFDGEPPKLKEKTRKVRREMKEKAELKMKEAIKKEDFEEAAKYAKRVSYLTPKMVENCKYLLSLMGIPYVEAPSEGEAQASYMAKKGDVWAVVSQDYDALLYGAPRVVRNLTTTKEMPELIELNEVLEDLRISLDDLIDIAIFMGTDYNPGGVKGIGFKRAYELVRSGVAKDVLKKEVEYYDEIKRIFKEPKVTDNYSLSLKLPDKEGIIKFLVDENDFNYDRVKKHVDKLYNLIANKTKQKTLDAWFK
The experiment in a line: cleavage_in_vitro. Particulars: turnover.

For data set [10], the target named is T2, Pfu FEN1 (Pyrococcus furiosus) (UniProt O93634).
T2 sequence: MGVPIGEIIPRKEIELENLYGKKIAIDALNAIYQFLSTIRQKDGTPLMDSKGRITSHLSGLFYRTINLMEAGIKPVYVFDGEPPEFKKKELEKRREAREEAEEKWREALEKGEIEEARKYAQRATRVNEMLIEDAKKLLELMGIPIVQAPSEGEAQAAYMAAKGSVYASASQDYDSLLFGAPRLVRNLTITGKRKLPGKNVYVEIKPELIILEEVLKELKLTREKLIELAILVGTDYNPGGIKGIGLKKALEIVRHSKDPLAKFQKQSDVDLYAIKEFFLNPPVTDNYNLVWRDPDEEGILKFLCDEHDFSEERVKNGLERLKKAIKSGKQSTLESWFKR
In words: cleavage_in_vitro. Particulars: turnover.

The subject of data set [11] is Thermus aquaticus DNA polymerase.
The test system of data set [12] is CLEAVASE BN/thrombin nuclease.
CLEAVASE BN/thrombin nuclease, sequence (chain, as listed by the source): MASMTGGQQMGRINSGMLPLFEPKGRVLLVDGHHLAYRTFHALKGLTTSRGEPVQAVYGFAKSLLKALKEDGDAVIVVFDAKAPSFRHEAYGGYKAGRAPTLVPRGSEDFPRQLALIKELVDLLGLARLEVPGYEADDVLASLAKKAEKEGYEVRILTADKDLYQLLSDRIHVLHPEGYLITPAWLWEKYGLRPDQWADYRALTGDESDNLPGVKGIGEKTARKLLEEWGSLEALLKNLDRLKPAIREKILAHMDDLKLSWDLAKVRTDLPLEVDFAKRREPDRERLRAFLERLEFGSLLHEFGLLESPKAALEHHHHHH

CLEAVASE BN nuclease, sequence (chain, as listed by the source): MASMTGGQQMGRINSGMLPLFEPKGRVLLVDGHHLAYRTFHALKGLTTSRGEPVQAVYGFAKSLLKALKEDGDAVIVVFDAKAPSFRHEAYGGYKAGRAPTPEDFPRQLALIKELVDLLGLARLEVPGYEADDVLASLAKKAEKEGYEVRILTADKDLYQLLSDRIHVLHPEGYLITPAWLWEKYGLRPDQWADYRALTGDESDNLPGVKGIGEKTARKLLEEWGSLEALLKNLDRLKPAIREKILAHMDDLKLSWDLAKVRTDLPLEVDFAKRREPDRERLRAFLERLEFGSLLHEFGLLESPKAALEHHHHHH
Thermus aquaticus DNA polymerase, sequence (chain, as listed by the source): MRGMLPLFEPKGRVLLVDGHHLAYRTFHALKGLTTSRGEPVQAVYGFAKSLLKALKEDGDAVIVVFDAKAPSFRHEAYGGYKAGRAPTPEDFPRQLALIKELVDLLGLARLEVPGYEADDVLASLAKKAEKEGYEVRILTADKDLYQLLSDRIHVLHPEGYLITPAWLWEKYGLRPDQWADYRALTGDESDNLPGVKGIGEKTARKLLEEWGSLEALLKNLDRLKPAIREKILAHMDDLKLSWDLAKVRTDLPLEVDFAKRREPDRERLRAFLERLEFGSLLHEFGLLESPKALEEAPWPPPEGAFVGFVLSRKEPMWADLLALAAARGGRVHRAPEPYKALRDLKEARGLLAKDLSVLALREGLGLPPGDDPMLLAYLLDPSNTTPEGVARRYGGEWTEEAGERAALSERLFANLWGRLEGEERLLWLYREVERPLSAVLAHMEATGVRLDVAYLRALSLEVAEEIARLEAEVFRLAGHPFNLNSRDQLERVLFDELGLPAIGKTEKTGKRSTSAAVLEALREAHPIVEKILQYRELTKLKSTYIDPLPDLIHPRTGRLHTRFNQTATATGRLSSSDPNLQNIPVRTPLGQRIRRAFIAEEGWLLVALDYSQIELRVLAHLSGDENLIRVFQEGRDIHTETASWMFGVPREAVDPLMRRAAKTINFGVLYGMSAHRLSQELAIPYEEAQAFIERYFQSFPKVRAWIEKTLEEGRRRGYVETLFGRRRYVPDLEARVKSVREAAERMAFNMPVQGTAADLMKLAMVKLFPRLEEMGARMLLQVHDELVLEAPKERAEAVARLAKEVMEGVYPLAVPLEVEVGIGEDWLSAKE
DNAPTth (Thermus thermophilus), sequence (P52028 whole entry): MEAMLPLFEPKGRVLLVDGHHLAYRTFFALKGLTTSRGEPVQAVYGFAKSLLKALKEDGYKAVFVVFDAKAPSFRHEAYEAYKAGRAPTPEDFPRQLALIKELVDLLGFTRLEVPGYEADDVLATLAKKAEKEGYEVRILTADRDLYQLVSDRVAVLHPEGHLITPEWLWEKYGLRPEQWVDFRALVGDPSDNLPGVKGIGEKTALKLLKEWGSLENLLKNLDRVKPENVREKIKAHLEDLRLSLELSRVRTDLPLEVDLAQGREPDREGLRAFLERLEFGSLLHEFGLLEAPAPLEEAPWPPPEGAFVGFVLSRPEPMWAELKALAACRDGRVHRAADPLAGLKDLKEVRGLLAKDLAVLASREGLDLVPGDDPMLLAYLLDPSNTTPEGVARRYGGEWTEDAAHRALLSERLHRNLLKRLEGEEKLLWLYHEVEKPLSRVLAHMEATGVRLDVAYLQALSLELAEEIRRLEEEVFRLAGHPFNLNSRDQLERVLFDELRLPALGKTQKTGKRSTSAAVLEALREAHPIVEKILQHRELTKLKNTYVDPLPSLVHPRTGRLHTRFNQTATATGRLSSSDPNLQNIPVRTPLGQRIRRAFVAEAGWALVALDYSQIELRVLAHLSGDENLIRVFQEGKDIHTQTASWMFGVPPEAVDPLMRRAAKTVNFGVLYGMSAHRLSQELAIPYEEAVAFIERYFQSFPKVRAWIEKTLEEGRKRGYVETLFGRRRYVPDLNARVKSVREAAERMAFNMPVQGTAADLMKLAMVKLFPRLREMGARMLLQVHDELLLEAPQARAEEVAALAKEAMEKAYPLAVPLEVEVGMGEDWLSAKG

For “CCGGTCGTCCTGGCAATXCC / GTTTATCCAAGAAAGGACCCGGTC [HCV RNA target/probe/INVADER (DNA oligos listed)]”, the activity in [1] was 32%; in data set [2] it was 70%.
For the substance “TTTTCAACTGCTTAGAGAATCTAAGCAGTTGGTGCGCCTCGTTAA / AACGAGGCGCACATT [X-structure 203-81-2/203-91-2]”, the cleavage rate in [3] (3'-NH2 on first strand) came to 0.07; in data set [4] (3'-NH2 on first strand), 0.1; in data set [5] (3'-NH2 on first strand), 59; in [6] (3'-NH2 on first strand), 0.52; in [7] (3'-NH2 on first strand), 1.37; in data set [8] (3'-NH2 on first strand), 0.28.
Regarding “TTTTTCACGGCAGTTGGTGCGCCTCGGAACGAGGCGCACA / TTTTCAACTGCCGTGA [INVADER substrate 594-12-1/203-91-1]”, the cleavage rate in [3] came to 0.03; in [4], 0.14; in [5] it was 1.2; in data set [6] it was 0.56; in [7] it was 2.4; in data set [8], 0.05.
On to duplex length 0 substrate, for which the activity in data set [9] and in [10] was 0 per min each time.
On to duplex length 3 substrate, for which the values for the activity in data set [9] and in data set [10] were 29 per min and 1 per min, respectively.
Take duplex length 4 substrate: the values for the activity in data set [9] and in data set [10] were 57 per min and 10 per min, respectively.
For duplex length 6 substrate, the activity was determined as 51 per min in [9] and 44 per min in data set [10].
For duplex length 8 substrate, the activity in data set [9] turned out to be 46 per min; in [10], 45 per min.
As for factor Xa, the “protease digestion of the unmodified nuclease” value (in the data set with CLEAVASE BN nuclease; in [11]) was “Both nuclease proteins were cut with factor Xa within the 5′ nuclease domain” in each case.
On to thrombin, for which the “protease digestion of the unmodified nuclease” value (in the data set on CLEAVASE BN nuclease; in data set [11]) was “neither nuclease was digested with large amounts of thrombin” each time. The “thrombin digestion, SDS-PAGE with Coomassie stain” value in data set [12] is “CLEAVASE BN/thrombin nuclease is efficiently cleaved by thrombin”.
